The values that follow come from patent publication US20170368168A1 (AGENUS, published 2017).

T1: human TIM-3 expressed on cells (human, UniProt Q8TDQ0 22-301)
T1 construct: also called T cell immunoglobulin and mucin domain-3; HAVCR2
T1 sequence: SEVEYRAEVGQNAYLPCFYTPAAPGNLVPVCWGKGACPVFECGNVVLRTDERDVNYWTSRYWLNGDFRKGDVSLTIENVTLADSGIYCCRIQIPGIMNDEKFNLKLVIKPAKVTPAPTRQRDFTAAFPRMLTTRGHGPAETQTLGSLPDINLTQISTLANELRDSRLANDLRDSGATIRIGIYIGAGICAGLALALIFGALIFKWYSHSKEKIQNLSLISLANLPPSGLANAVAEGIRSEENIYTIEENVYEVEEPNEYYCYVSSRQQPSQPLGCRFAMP

B1: pab2174 (IgG1) (antibody, V domains shown)
VH: not shown
VL: EIVLTQSPATLSLSPGERATLSCRASQSVSSYLAWYQQKPGQAPRLLIYDASNRATGIPARFSGSGSGTDFTLTISRLEPEDFAVYYCQQYGSSPLTFGGGTKVEIK
B2: pab2191 (IgG1) (antibody, V domains shown)
VH: not shown
VL: EIVLTQSPGTLSLSPGERATLSCRASQSVSSYLAWYQQKPGQAPRLLIYDASNRATGIPARFSGSGSGTDFTLTISRLEPEDFAVYYCQQYGSSPLTFGGGTKVEIK
B3: pab2188 (IgG1) (antibody, V domains shown)
VH: not shown
VL: EIVLTQSPATLSLSPGERATLSCRASQSVSSYLAWYQQKPGQAPRLLIYDASNRATGIPASFSGSGSGTDFTLTISRLEPEDFAVYYCQQYGSSPLTFGGGTKVEIK
B4: pab2178 (IgG1) (antibody, V domains shown)
VH: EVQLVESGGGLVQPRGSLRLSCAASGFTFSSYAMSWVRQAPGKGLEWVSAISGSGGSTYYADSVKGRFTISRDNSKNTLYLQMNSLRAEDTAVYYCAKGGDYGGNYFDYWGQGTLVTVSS
VL: EIVLTQSPATLSLSPGERATLSCRASQSVSSYLAWYQQKPGQAPRLLIYDASNRATGIPASFSGSGSGTDFTLTISRLEPEDFAVYYCQQYGSSPLTFGGGTKVEIK
B5: pab2182 (IgG1) (antibody, V domains shown)
VH: not shown
VL: EIVLTQSPGTLSLSPGERATLSCRASQSVSSYLAWYQQKPGQAPRLLIYGASSRATGIPARFSGSGSGTDFTLTISRLEPEDFAVYYCQQYGSSPITFGGGTKVEIK
B6: pab2183 (IgG1) (antibody, V domains shown)
VH: not shown
VL: EIVLTQSPATLSLSPGERATLSCRASQSVSSYLAWYQQKPGQAPRLLIYGASTRATGIPARFSGSGSGTDFTLTISRLEPEDFAVYYCQQYGSSPLTFGGGTKVEIK
B7: pab2179 (IgG1) (antibody, V domains shown)
VH: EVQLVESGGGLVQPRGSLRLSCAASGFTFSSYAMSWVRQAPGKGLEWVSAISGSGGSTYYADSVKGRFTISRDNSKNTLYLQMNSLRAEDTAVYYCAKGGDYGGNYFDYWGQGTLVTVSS
VL: EIVLTQSPGTLSLSPGERATLSCRASQSVSSYLAWYQQKPGQAPRLLIYDASSRATGIPDRFSGSGSGTDFTLTISRLEPEDFAVYYCQQYGSSPLTFGGGTKVEIK
B8: pab2180 (IgG1) (antibody, V domains shown)
VH: not shown
VL: EIVLTQSPGTLSLSPGERATLSCRASQSVSSYLAWYQQKPGQAPRLLIYDASSRATGIPDRFSGSGSGTDFTLTISRLEPEDFAVYYCQQYGSSPLTFGGGTKVEIK
B9: pab2177 (IgG1) (antibody, V domains shown)
VH: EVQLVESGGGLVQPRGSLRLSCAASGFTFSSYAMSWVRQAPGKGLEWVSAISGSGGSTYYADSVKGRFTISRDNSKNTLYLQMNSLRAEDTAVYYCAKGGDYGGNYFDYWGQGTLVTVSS
VL: EIVLTQSPGTLSLSPGERATLSCRASQSVSSYLAWYQQKPGQAPRLLIYDASNRATGIPARFSGSGSGTDFTLTISRLEPEDFAVYYCQQYGSSPLTFGGGTKVEIK
B10: pab2175 (IgG1) (antibody, V domains shown)
VH: not shown
VL: EIVLTQSPATLSLSPGERATLSCRASQSVSSYLAWYQQKPGQAPRLLIYDASNRATGIPASFSGSGSGTDFTLTISRLEPEDFAVYYCQQYGSSPLTFGGGTKVEIK
B11: pab2192 (IgG1) (antibody, V domains shown)
VH: not shown
VL: EIVLTQSPGTLSLSPGERATLSCRASQSVSSYLAWYQQKPGQAPRLLIYGASSRATGIPARFSGSGSGTDFTLTISRLEPEDFAVYYCQQYGSSPITFGGGTKVEIK
B12: pab2176 (IgG1) (antibody, V domains shown)
VH: not shown
VL: EIVLTQSPGTLSLSPGERATLSCRASQSVSSYLAWYQQKPGQAPRLLIYDASNRATGIPARFSGSGSGTDFTLTISRLEPEDFAVYYCQQYGSSPLTFGGGTKVEIK
B13: pab2186 (IgG1) (antibody, V domains shown)
VH: not shown
VL: EIVLTQSPATLSLSPGERATLSCRASQSVSSYLAWYQQKPGQAPRLLIYDASNRATGIPARFSGSGSGTDFTLTISSLEPEDFAVYYCQQYGSSPLTFGGGTKVEIK
B14: pab2173 (IgG1) (antibody, V domains shown)
VH: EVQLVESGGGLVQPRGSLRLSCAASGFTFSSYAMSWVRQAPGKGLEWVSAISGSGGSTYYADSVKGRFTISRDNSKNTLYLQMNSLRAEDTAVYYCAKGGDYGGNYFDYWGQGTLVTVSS
VL: EIVLTQSPATLSLSPGERATLSCRASQSVSSYLAWYQQKPGQAPRLLIYDASNRATGIPARFSGSGSGTDFTLTISRLEPEDFAVYYCQQYGSSPLTFGGGTKVEIK
B15: pab2190 (IgG1) (antibody, V domains shown)
VH: not shown
VL: EIVLTQSPGTLSLSPGERATLSCRASQSVSSYLAWYQQKPGQAPRLLIYDASSRATGIPDRFSGSGSGTDFTLTISRLEPEDFAVYYCQQYGSSPLTFGGGTKVEIK
B16: pab2189 (IgG1) (antibody, V domains shown)
VH: not shown
VL: EIVLTQSPATLSLSPGERATLSCRASQSVSSYLAWYQQKPGQAPRLLIYDASNRATGIPARFSGSGSGTDFTLTISRLEPEDFAVYYCQQYGSSPLTFGGGTKVEIK
B17: pab2184 (IgG1) (antibody, V domains shown)
VH: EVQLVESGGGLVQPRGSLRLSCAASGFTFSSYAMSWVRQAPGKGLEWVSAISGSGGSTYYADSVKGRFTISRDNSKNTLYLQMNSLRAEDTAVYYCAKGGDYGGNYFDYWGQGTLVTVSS
VL: EIVLTQSPGTLSLSPGERATLSCRASQSVSSYLAWYQQKPGQAPRLLIYGASSRATGIPARFSGSGSGTDFTLTISRLEPEDFAVYYCQQYGSSPITFGGGTKVEIK
B18: AM-3 (IgG1 N297A) (antibody, V domains shown)
VH: EVQLVESGGGLVQPGGSLRLSCAASGFTFMSGQTSWVRRAPGKGLEWVSAISGSGGSTYYADSVKGRFTISRDNSKNTLYLQMNSLRAEDTAVYYCAKGGDYGGNYFDYWGQGTLVTVSS
VL: EIVLTQSPATLSLSPGERATLSCRASQSVSSYLAWYQQKPGQAPRLLIYDASNRATGIPASFSGSGSGTDFTLTISRLEPEDFAVYYCQQYGSSPLTFGGGTKVEIKR
B19: pab2191 (IgG1 variant) (antibody, V domains shown)
VH: not shown
VL: EIVLTQSPGTLSLSPGERATLSCRASQSVSSYLAWYQQKPGQAPRLLIYDASNRATGIPARFSGSGSGTDFTLTISRLEPEDFAVYYCQQYGSSPLTFGGGTKVEIK
B20: pab2190 (IgG1 variant) (antibody, V domains shown)
VH: not shown
VL: EIVLTQSPGTLSLSPGERATLSCRASQSVSSYLAWYQQKPGQAPRLLIYDASSRATGIPDRFSGSGSGTDFTLTISRLEPEDFAVYYCQQYGSSPLTFGGGTKVEIK
B21: pab2184 (IgG1 variant) (antibody, V domains shown)
VH: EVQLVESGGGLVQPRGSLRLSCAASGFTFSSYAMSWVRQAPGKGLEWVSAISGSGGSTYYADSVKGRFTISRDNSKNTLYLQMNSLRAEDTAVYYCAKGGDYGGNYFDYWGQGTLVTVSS
VL: EIVLTQSPGTLSLSPGERATLSCRASQSVSSYLAWYQQKPGQAPRLLIYGASSRATGIPARFSGSGSGTDFTLTISRLEPEDFAVYYCQQYGSSPITFGGGTKVEIK
B22: pab2189 (IgG1 variant) (antibody, V domains shown)
VH: not shown
VL: EIVLTQSPATLSLSPGERATLSCRASQSVSSYLAWYQQKPGQAPRLLIYDASNRATGIPARFSGSGSGTDFTLTISRLEPEDFAVYYCQQYGSSPLTFGGGTKVEIK
B23: pab2186 (IgG1 variant) (antibody, V domains shown)
VH: not shown
VL: EIVLTQSPATLSLSPGERATLSCRASQSVSSYLAWYQQKPGQAPRLLIYDASNRATGIPARFSGSGSGTDFTLTISSLEPEDFAVYYCQQYGSSPLTFGGGTKVEIK
B24: pab2192 (IgG1 variant) (antibody, V domains shown)
VH: not shown
VL: EIVLTQSPGTLSLSPGERATLSCRASQSVSSYLAWYQQKPGQAPRLLIYGASSRATGIPARFSGSGSGTDFTLTISRLEPEDFAVYYCQQYGSSPITFGGGTKVEIK

The first test deals with T1, human TIM-3 expressed on cells. Description: flow cytometry, 1624-5 cells expressing human TIM-3. (In general: In flow cytometry, cells or beads pass a laser one at a time.)
Turning to B1, the binding result is recorded as “binds”. For B2, the binding result is on record as “binds”. Still for that read-out and setting: next, B3: “binds”; B4: “binds”. B5: the binding result is reported as “binds”. On the same count and under the same terms, as for B6, the entry is “binds”; as for B7, “binds”; as for B8, “binds”. The same measure, in the same setting: as for B9, the entry is “binds”; as for B10, “binds”. The same measure, in the same setting: next, B11: “binds”. As for B12, the binding result is “binds”. Same read-out and setting: next, B13: “binds”; B14: “binds”. On to B15, for which the binding result was “binds”. Same read-out and setting: as for B16, the entry is “binds”; as for B17, “binds”.

The target is the same in another test. Description: flow cytometry, Jurkat cells ectopically expressing human TIM-3.
Regarding B18, the binding result is “binds”.

The target is the same in another test. The test is described as follows: flow cytometry, anti-CD3/anti-CD28 activated primary human CD8+ T cells.
Description: Briefly, peripheral blood mononuclear cells (PBMCs) isolated via ficoll gradient from healthy donor buffy coats (Research Blood Components, LLC) were enriched for untouched pan-T cells using magnetic-based separation (Miltenyi Biotec). The enriched population of T lymphocytes was then activated with plate-bound anti-CD3 antibody (SP34, 3 μg/ml) and soluble anti-CD28 antibody (CD28.1, 2 μg/ml) for 3 days in RPMI media, supplemented with 10% heat-inactivated FBS, at 37° C. and 5% CO₂. Following activation, cells were incubated with human Fc-receptor block for 15 minutes at room temperature to reduce non-specific binding (FcR block, Biolegend). Anti-TIM-3 or IgG isotype control antibodies (12-point dose titration, 10,000 ng/ml to 0.06 ng/ml) were added to individual samples and incubated for 30 minutes at 4° C. Samples were washed two times and an antibody cocktail, containing FITC-conjugated anti-kappa antibody as well as anti-CD3 (BV711, OKT3), anti-CD4 (BV605, OKT4) and anti-CD8a (PE, RPA-T8, all at 2.5 μg/ml, was diluted in buffer (PBS, 2 mM EDTA, 0.5% BSA, pH 7.2), added to each sample and incubated for 30 minutes at 4° C. Samples were washed two times and analyzed using the LSRFortessa flow cytometer (BD Biosciences). Flow cytometry plots were analyzed using a combination of FACS DIVA and WEHI Weasel software.
Consider B19, for which the binding result was “binds”. On the same count and under the same terms, as for B20, the entry is “binds”; as for B21, “binds”; as for B22, “binds”. Still for that read-out and setting: as for B23, the entry is “binds”; as for B24, “binds”.
